Values quoted from earlier work, collected in article PMC4244080.

Biological target: insulin receptor (Homo sapiens) (UniProt P06213)
Test: radioligand binding

Chain of UniProt P06213 (P06213 763-1382): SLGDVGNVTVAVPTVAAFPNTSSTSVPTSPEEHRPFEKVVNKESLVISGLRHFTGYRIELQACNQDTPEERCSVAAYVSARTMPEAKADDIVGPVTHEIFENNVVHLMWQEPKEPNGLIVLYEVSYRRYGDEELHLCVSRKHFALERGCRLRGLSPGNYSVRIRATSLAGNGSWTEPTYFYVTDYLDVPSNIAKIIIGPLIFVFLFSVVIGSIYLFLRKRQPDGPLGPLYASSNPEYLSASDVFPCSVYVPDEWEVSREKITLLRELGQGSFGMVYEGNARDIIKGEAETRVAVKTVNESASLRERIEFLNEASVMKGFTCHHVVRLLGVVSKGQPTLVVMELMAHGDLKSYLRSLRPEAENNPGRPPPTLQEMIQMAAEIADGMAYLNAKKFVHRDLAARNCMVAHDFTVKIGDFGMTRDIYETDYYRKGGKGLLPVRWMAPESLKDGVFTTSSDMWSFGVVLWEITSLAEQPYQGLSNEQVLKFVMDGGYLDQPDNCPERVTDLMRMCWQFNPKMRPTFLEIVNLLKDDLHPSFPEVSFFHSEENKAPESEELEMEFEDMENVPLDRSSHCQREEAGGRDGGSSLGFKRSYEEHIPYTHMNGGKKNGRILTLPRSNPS
Chain of insulin (P01308 90-110): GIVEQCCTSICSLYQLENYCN

Kd: 300 pM
Substance: insulin (from UniProt P01308)
